The Immune Epitope Database (IEDB)

Tests used:
Experiment in all cases: IEDB peptide-MHC binding, purified MHC/competitive/radioactivity; filed as Kd, often an IC50 or EC50 that approximates it; ≥ and ≤ were set here for values at or beyond the usual limits of such assays
HLA-A*02:02 = target: HLA-A*02:02
HLA-A*02:03 = target: HLA-A*02:03
HLA-A*02:06 = target: HLA-A*02:06
HLA-A*68:01 = target: HLA-A*68:01
HLA-A*11:01 = target: HLA-A*11:01
HLA-A*03:01 = target: HLA-A*03:01
HLA-A*33:01 = target: HLA-A*33:01
HLA-A*31:01 = target: HLA-A*31:01
[1] = source organism: SARS coronavirus Tor2
[2] = source organism: Lymphocytic choriomeningitis virus (strain Armstrong)
[3] = source organism: Vaccinia virus WR
[4] = source organism: Dengue virus 4 Philippines/H241/1956
[5] = source organism: Dengue virus 1 Brazil/97-11/1997
[6] = source organism: Dengue virus 2 Jamaica/1409/1983
[7] = source organism: Mammarenavirus machupoense
[8] = source organism: Triticum aestivum

In the case of ALYKGFQFI, the Kd (HLA-A*02:02; [1]) is reported as 0.532 nM, the Kd (HLA-A*02:03; [1]) is reported as 3.32 nM and the Kd (HLA-A*02:06; [1]) is reported as 2.03 nM.

Sequence AVYNFATCGI has a Kd (HLA-A*02:02; [2]) of 25.3 nM, a Kd (HLA-A*02:03; [2]) of 7.28 nM and a Kd (HLA-A*02:06; [2]) of 25.2 nM.

In the case of DVNSVQFSI, the Kd (HLA-A*02:02; [3]) is reported as 10400 nM, the Kd (HLA-A*02:03; [3]) is reported as 16200 nM and the Kd (HLA-A*02:06; [3]) is reported as 16900 nM.

Work on EISSNDNAKI yielded a Kd (HLA-A*02:02; [3]) of 11200 nM, a Kd (HLA-A*02:03; [3]) of 194 nM and a Kd (HLA-A*02:06; [3]) of 162 nM.

In the case of EQRRSTIFDI, the Kd (HLA-A*02:02; [3]) is reported as no less than 23000 nM, the Kd (HLA-A*02:03; [3]) is reported as 11400 nM and the Kd (HLA-A*02:06; [3]) is reported as no less than 25600 nM.

In the case of EVGTNFGTI, the Kd (HLA-A*02:02; [3]) is reported as 5760 nM, the Kd (HLA-A*02:03; [3]) is reported as 1940 nM and the Kd (HLA-A*02:06; [3]) is reported as 19900 nM.

FLAFLLFLV was tested, and the Kd (HLA-A*02:02; [1]) was 1.81 nM, the Kd (HLA-A*02:03; [1]) was 58.3 nM and the Kd (HLA-A*02:06; [1]) was 9 nM.

Work on FLAHYIGTS yielded a Kd (HLA-A*02:03; source organism: Dengue virus 3 Martinique/1243/1999) of 10.7 nM.

For FLLPLTSLVI, the Kd (HLA-A*02:02; [3]) was 11.5 nM, the Kd (HLA-A*02:03; [3]) was 5.07 nM and the Kd (HLA-A*02:06; [3]) was 2.5 nM.

In the case of FLNGSCGSV, the Kd (HLA-A*02:02; [1]) is reported as 1.05 nM, the Kd (HLA-A*02:03; [1]) is reported as 0.571 nM and the Kd (HLA-A*02:06; [1]) is reported as 64.5 nM.

FLRPVLKAM showed a Kd (HLA-A*02:02; [3]) of 1380 nM, a Kd (HLA-A*02:03; [3]) of 9.75 nM and a Kd (HLA-A*02:06; [3]) of 5480 nM.

For FQESFYEDI, the Kd (HLA-A*02:02; [3]) was 2280 nM, the Kd (HLA-A*02:03; [3]) was 4420 nM and the Kd (HLA-A*02:06; [3]) was 185 nM.

In the case of FQPESPARL, the Kd (HLA-A*02:06; [4]) is reported as 36.9 nM.

FTFGDTALYV showed a Kd (HLA-A*02:02; [3]) of 24.3 nM, a Kd (HLA-A*02:03; [3]) of 48.1 nM and a Kd (HLA-A*02:06; [3]) of 3.51 nM.

GIAIFNNRNL gave a Kd (HLA-A*02:02; [3]) of 5.12 nM, a Kd (HLA-A*02:03; [3]) of 2040 nM and a Kd (HLA-A*02:06; [3]) of 4720 nM.

With GIVAIDLDPV the Kd (HLA-A*02:06; [5]) was 9.7 nM.

GLLDSIKMI gave a Kd (HLA-A*02:02; [3]) of 80 nM, a Kd (HLA-A*02:03; [3]) of 14.1 nM and a Kd (HLA-A*02:06; [3]) of 43.4 nM.

Work on GMYYPTNDI yielded a Kd (HLA-A*02:02; [3]) of 53.1 nM, a Kd (HLA-A*02:03; [3]) of 8.71 nM and a Kd (HLA-A*02:06; [3]) of 1680 nM.

GQVMLLILCV gave a Kd (HLA-A*02:06; [6]) of 77.2 nM.

For GVMYAFTTPL, the Kd (HLA-A*02:02; [3]) was 34.2 nM, the Kd (HLA-A*02:03; [3]) was 44.4 nM and the Kd (HLA-A*02:06; [3]) was 44.8 nM.

For IAMWLLLLSI, the Kd (HLA-A*02:02; [1]) was 85.8 nM, the Kd (HLA-A*02:03; [1]) was 1900 nM and the Kd (HLA-A*02:06; [1]) was 498 nM.

Work on ILATLNTLIT yielded a Kd (HLA-A*02:02; [3]) of 6.95 nM, a Kd (HLA-A*02:03; [3]) of 12.3 nM and a Kd (HLA-A*02:06; [3]) of 629 nM.

For IMLIIFWFSL, the Kd (HLA-A*02:02; [1]) was 1540 nM, the Kd (HLA-A*02:03; [1]) was 14900 nM and the Kd (HLA-A*02:06; [1]) was 16800 nM.

In the case of ITDDSDDYEL, the Kd (HLA-A*02:02; [3]) is reported as 687 nM, the Kd (HLA-A*02:03; [3]) is reported as 11900 nM and the Kd (HLA-A*02:06; [3]) is reported as 49.3 nM.

ITFLRPVLKA gave a Kd (HLA-A*02:02; [3]) of 3160 nM, a Kd (HLA-A*02:03; [3]) of 718 nM and a Kd (HLA-A*02:06; [3]) of 18000 nM.

For ITLDILTEI, the Kd (HLA-A*02:06; [4]) was 8.88 nM.

In the case of IVCIVAAVII, the Kd (HLA-A*02:02; [3]) is reported as 1460 nM, the Kd (HLA-A*02:03; [3]) is reported as 1590 nM and the Kd (HLA-A*02:06; [3]) is reported as 3560 nM.

IVQLPKRGV showed a Kd (HLA-A*02:02; [3]) of 12000 nM, a Kd (HLA-A*02:03; [3]) of 8750 nM and a Kd (HLA-A*02:06; [3]) of 3120 nM.

KIIAVFDSKL gave a Kd (HLA-A*02:02; [3]) of 24.6 nM, a Kd (HLA-A*02:03; [3]) of 56.8 nM and a Kd (HLA-A*02:06; [3]) of 59.4 nM.

For KIVGLYGNGV, the Kd (HLA-A*02:06; [5]) was 14.7 nM.

KLFKRERDA showed a Kd (HLA-A*02:02; [3]) of 2390 nM, a Kd (HLA-A*02:03; [3]) of 985 nM and a Kd (HLA-A*02:06; [3]) of 14900 nM.

KLPTWLGAA gave a Kd (HLA-A*02:02; [3]) of 499 nM, a Kd (HLA-A*02:03; [3]) of 8.02 nM and a Kd (HLA-A*02:06; [3]) of 9.42 nM.

In the case of KSYFTNAAL, the Kd (HLA-A*02:02; [7]) is reported as 593 nM, the Kd (HLA-A*02:03; [7]) is reported as 7180 nM and the Kd (HLA-A*02:06; [7]) is reported as 12000 nM.

LLAMGCYSQV was tested, and the Kd (HLA-A*02:03; [4]) was 2.67 nM.

LMAIDLGEL gave a Kd (HLA-A*02:03; [6]) of 15.3 nM.

LMLKATLLCV showed a Kd (HLA-A*02:02; [1]) of 3.39 nM, a Kd (HLA-A*02:03; [1]) of 20.9 nM and a Kd (HLA-A*02:06; [1]) of 63.4 nM.

Work on MAAAKTPVIV yielded a Kd (HLA-A*02:02; [3]) of 6010 nM, a Kd (HLA-A*02:03; [3]) of 156 nM and a Kd (HLA-A*02:06; [3]) of 3630 nM.

In the case of MLLTFLTSL, the Kd (HLA-A*02:02; [1]) is reported as 6.21 nM, the Kd (HLA-A*02:03; [1]) is reported as 4.84 nM and the Kd (HLA-A*02:06; [1]) is reported as 3.63 nM.

NIGCAVNTPV gave a Kd (HLA-A*02:02; [3]) of 126 nM, a Kd (HLA-A*02:03; [3]) of 30.3 nM and a Kd (HLA-A*02:06; [3]) of 176 nM.

For NLLLLFVTI, the Kd (HLA-A*02:02; [1]) was 436 nM, the Kd (HLA-A*02:03; [1]) was 1600 nM and the Kd (HLA-A*02:06; [1]) was 456 nM.

Work on NVISKIYTLI yielded a Kd (HLA-A*02:02; [3]) of 0.985 nM, a Kd (HLA-A*02:03; [3]) of 32.7 nM and a Kd (HLA-A*02:06; [3]) of 196 nM.

PAMSTYSDI showed a Kd (HLA-A*02:02; [3]) of 18300 nM, a Kd (HLA-A*02:03; [3]) of no less than 20600 nM and a Kd (HLA-A*02:06; [3]) of no less than 77100 nM.

PVDLVKSSFV was tested, and the Kd (HLA-A*02:02; [3]) was 6610 nM, the Kd (HLA-A*02:03; [3]) was 9640 nM and the Kd (HLA-A*02:06; [3]) was no less than 26600 nM.

In the case of PVVYHDDDNT, the Kd (HLA-A*02:02; [3]) is reported as 9140 nM, the Kd (HLA-A*02:03; [3]) is reported as no less than 26800 nM and the Kd (HLA-A*02:06; [3]) is reported as 1350 nM.

QILEENMEV was tested, and the Kd (HLA-A*02:06; [4]) was 30.5 nM.

In the case of QLEDSEYLFR, the Kd (HLA-A*68:01; [3]) is reported as 90.9 nM, the Kd (HLA-A*11:01; [3]) is reported as 79.1 nM and the Kd (HLA-A*03:01; [3]) is reported as 376 nM. For the same sequence, the Kd (HLA-A*33:01; [3]) was 40 nM and the Kd (HLA-A*31:01; [3]) was 182 nM.

QLMCQPILL gave a Kd (HLA-A*02:02; [1]) of 2.99 nM, a Kd (HLA-A*02:03; [1]) of 11.9 nM and a Kd (HLA-A*02:06; [1]) of 76.9 nM.

With QQQQQQQQQK the Kd (HLA-A*68:01; [8]) was no less than 46700 nM, the Kd (HLA-A*11:01; [8]) was 4840 nM and the Kd (HLA-A*03:01; [8]) was 11200 nM. For the same sequence, the Kd (HLA-A*33:01; [8]) was no less than 70000 nM and the Kd (HLA-A*31:01; [8]) was no less than 23200 nM.

QVKDNIISR was tested, and the Kd (HLA-A*68:01; [3]) was 11.3 nM, the Kd (HLA-A*11:01; [3]) was 185 nM and the Kd (HLA-A*03:01; [3]) was 2550 nM. The Kd (HLA-A*33:01; [3]) was 64.8 nM and the Kd (HLA-A*31:01; [3]) was 908 nM.

For RAKRKPAMST, the Kd (HLA-A*02:02; [3]) was 977 nM, the Kd (HLA-A*02:03; [3]) was 1380 nM and the Kd (HLA-A*02:06; [3]) was 1550 nM.

RLSAAIGKA gave a Kd (HLA-A*02:03; source organism: Dengue virus 1 Singapore/S275/1990) of 70.7 nM.

Sequence RLVEEFFNR has a Kd (HLA-A*68:01; [3]) of 29.4 nM, a Kd (HLA-A*11:01; [3]) of 88.1 nM and a Kd (HLA-A*03:01; [3]) of 21.2 nM. It also gave a Kd (HLA-A*33:01; [3]) of 796 nM and a Kd (HLA-A*31:01; [3]) of 1.39 nM.

In the case of RSKMLKRGSR, the Kd (HLA-A*68:01; [3]) is reported as 166 nM, the Kd (HLA-A*11:01; [3]) is reported as 1170 nM and the Kd (HLA-A*03:01; [3]) is reported as 279 nM. The Kd (HLA-A*33:01; [3]) was 128 nM and the Kd (HLA-A*31:01; [3]) was 0.61 nM.

With SCDDVVFGI the Kd (HLA-A*02:02; [2]) was 2150 nM, the Kd (HLA-A*02:03; [2]) was no less than 50400 nM and the Kd (HLA-A*02:06; [2]) was 14500 nM.
